The source of these data is publication PMC3482499.

The data set deals with T1, Cra (Escherichia coli O157:H7 (EHEC) 86-24) (UniProt P0ACP3).
T1 sequence: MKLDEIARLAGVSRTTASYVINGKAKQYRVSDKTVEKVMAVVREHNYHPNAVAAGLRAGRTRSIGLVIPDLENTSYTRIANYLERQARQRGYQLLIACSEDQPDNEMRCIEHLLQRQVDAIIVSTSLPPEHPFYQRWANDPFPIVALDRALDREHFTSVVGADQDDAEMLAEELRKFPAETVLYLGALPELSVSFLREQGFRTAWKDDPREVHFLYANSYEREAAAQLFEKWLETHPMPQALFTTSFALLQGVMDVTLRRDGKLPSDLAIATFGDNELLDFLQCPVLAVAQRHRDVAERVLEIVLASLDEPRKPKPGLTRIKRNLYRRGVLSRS
In words: competition.

With “TCGGATCCCATGTGCTGCGACTGCGTTCGCTTACCCCAATCACTTACTTATGTAAGCTCCTGGGGATTCACTCGCTTGCCGCCTTCCTGTAACTCGAATTAAGTAGAGTATAGTGAAACGGTTCAGCTTGGTTTTTATTCTGTTTTATTTGTTTATGCAATGAGATCTATCTTATAAAGAGAAACGCTTAACTAAATGGAAATGCGAATTCGA (double strand) [ler probe aa (-450 to -255)]”, the binding entry was “binds”.
